Assay results as given in publication PMC7104408 (Proceedings of the National Academy of Sciences of the …, 2019).
Where a chain is given by its changes, count along the chain named. Read-outs that look alike come from different tables or passages of the source.

Key:
[1] = target: T1, LUXMYB (UniProt Q9SNB4 139-200); assay: crystal structure
T1 sequence: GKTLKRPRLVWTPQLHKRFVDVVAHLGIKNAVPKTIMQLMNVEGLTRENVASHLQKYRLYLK

[2] = target: T2, LUXMYB R146A (UniProt Q9SNB4 139-200, R146A); assay: EMSA
T2 sequence: T1 sequence with R8A

[3] = target: T3, LUXFL (UniProt Q9SNB4 1-323); assay: EMSA
T3 sequence: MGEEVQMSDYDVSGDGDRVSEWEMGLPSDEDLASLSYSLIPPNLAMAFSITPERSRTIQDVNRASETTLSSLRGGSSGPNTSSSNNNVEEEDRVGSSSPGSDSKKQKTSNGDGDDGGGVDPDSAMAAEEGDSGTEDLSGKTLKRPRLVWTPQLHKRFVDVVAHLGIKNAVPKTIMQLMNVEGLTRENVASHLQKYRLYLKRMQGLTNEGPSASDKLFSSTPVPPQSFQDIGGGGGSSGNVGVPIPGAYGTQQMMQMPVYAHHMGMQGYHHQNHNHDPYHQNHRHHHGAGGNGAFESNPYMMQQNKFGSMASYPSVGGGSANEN

[4] = target: T1, LUXMYB; assay: EMSA
[5] = target: T4, EARLY FLOWERING 3, full-length (Arabidopsis, UniProt O82804 1-695); assay: native gel or EMSA
T4 sequence: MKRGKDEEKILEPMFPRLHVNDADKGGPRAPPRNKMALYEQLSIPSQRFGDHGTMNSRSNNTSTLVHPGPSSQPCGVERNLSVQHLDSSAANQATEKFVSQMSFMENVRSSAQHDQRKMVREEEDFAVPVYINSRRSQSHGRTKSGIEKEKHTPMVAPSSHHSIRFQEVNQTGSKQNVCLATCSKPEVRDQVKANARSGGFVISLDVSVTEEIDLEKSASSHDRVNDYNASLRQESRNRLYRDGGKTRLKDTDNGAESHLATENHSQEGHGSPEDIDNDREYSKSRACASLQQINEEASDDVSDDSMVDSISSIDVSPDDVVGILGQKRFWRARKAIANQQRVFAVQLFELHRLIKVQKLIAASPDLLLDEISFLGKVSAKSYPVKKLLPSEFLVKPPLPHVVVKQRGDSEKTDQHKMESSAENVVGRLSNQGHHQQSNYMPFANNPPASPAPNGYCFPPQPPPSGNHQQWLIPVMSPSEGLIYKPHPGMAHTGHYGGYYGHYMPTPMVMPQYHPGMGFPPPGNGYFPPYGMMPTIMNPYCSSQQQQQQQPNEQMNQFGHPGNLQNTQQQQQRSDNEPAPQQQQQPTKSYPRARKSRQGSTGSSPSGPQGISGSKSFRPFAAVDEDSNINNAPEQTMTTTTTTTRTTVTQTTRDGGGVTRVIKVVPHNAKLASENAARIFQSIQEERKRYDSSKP

[6] = target: T1, LUXMYB; assay: crystal structure; remark: listed apart in the source
[7] = target: T5, LUXFL R146A (UniProt Q9SNB4 1-323, R146A); assay: EMSA
T5 sequence: T3 sequence with R146A

[8] = target: T6, ELF3 (UniProt O82804 1-695); assay: EMSA
T6 sequence: T4 sequence

[9] = target: T7, ELF4 (UniProt O04211 1-111); assay: EMSA
T7 sequence: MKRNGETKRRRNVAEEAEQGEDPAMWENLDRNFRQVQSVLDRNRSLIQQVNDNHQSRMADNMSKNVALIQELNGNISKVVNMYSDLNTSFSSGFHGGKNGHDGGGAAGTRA

[10] = target: T8, LUXFL;ELF3;ELF4 (Arabidopsis thaliana?;Arabidopsis …, UniProt Q9SNB4;O82804;O04211 1-323;1-695;1-111, ||); assay: EMSA
T8 sequence 1: T3 sequence
T8 sequence 2: T4 sequence
T8 sequence 3: T7 sequence

B1: crystal 10-mer AGATACGC (dsDNA)
DNA 1: TAGATACGCA
DNA 2: ATGCGTATCT
binding result [1]: binds

B2: Oligo 5 (ATATTCGA) (dsDNA)
DNA 1: ATGATGTCTTCTCGAATATTCGATAAAAATGGTGTTG
DNA 2: CAACACCATTTTTATCGAATATTCGAGAAGACATCAT
Kd [2]: 137 ± 13 nM | Kd [3]: 178 ± 3.5 nM | Kd [4]: 43 ± 4.2 nM

B3: EARLY FLOWERING 4 (natural protein)
chain: T7 sequence
binding result [5]: binds

B4: crystal 10-mer ATATTCGA (dsDNA)
DNA 1: TATATTCGAA
DNA 2: ATTCGAATAT
binding result [6]: binds

B5: Oligo 1 (PRR9 36 bp) (dsDNA)
DNA 1: ATGATGTCTTCTCAAGATTCGATAAAAATGGTGTTG
DNA 2: CAACACCATTTTTATCGAATCTTGAGAAGACATCAT
Kd [2]: 50 ± 2.4 nM | Kd [3]: 93 ± 5.8 nM | Kd [7]: 105 ± 11.8 nM | Kd [4]: 37 ± 2.9 nM | binding result [8]: no binding | binding result [9]: no binding | binding result [10]: binds

B6: Oligo 3 (AAGATCTT) (dsDNA)
DNA 1: B5 DNA 1 with T19C, C20T, G21T
DNA 2: B5 DNA 2 with C16A, G17A, A18G
Kd [2]: 63 ± 3.1 nM | Kd [3]: 93 ± 3.5 nM | Kd [7]: 204 ± 6.7 nM | Kd [4]: 14 ± 1.8 nM

B7: Oligo 2 (AGATACGC) (dsDNA)
DNA 1: B5 DNA 1 with T19A, A22C
DNA 2: B5 DNA 2 with T15G, A18T
Kd [2]: 50 ± 1.8 nM | Kd [3]: 98 ± 2.9 nM | Kd [7]: 336 ± 4.8 nM | Kd [4]: 6.5 ± 1.4 nM

B8: Oligo 4 (GGATCCGA) (dsDNA)
DNA 1: ATGATGTCTTCTCGGATCCGATAAAAATGGTGTTG
DNA 2: CAACACCATTTTTATCGGATCCGAGAAGACATCAT
Kd [2]: 120 ± 1 nM | Kd [3]: 118 ± 10.6 nM | Kd [7]: 164 ± 4.2 nM | Kd [4]: 17 ± 2.1 nM
